The values below come from patent publication US20250340649A1 (RUTGERS THE STATE UNIVERSITY OF NEW JERSEY, published 2025).

For orientation: EC50 (read off the curve) means the concentration that produces a half-maximal response. Usually Kd stands for the equilibrium constant for the complex coming apart. The low end stands for higher affinity, the high end for lower affinity. In general, koff refers to the rate constant with which the complex falls apart. Low values mean slow dissociation, high ones fast dissociation. Usually kon stands for the rate constant with which the complex forms. Lower therefore signals slow association.

In experiment [1] the target is T1, CD16b on neutrophils (human, UniProt O75015 17-200).
T1 construct: whole, on cells; also called neutrophils (CD16b+)
T1 sequence (O75015 17-200): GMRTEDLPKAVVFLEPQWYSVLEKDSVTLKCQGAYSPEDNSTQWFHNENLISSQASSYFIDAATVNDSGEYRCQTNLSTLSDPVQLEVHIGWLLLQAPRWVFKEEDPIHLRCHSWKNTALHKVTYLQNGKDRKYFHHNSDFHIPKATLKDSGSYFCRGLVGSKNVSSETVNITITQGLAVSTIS
Nature of the experiment: flow cytometry, neutrophils (CD16b+); value at the PE-H+ gate inside the histogram. (In general: In flow cytometry, cells or beads pass a laser one at a time.)

Experiment [2] addresses T2, CD16a on NK92 (CD16+) cells (human, UniProt P08637 17-254).
T2 construct: whole, on cells; also called NK92 cells (CD16a+); haNK92 cells (CD16a+)
Nature of the experiment: flow cytometry, NK92 cells (CD16a+).

For experiment [3], the target named is T1, CD16b on neutrophils. Nature of the experiment: flow cytometry, neutrophils (CD16b+).
The target in experiment [4] is T1, CD16b on neutrophils. The experiment is described as follows: flow cytometry, neutrophils (CD16b+); value of the drawn table.
In experiment [5] the target is HER2 on the surface of HER2+ cancer cells (BT474, SKOV-3) (human) (UniProt P04626). The experiment is described as follows: flow cytometry on SKOV-3 cells (HER2+).
Experiment [6] has the same target. The experiment is described as follows: flow cytometry on BT-474 cells (HER2+).
Experiment [7] concerns the target T1, CD16b on neutrophils. The experiment is described as follows: flow cytometry, neutrophils (CD16b+); value at the PE-H- gate inside the histogram.
Experiment [8] has as its target T2, CD16a on NK92 (CD16+) cells. The experiment is described as follows: flow cytometry, fixed haNK92 (CD16+) cells, tenfold dilutions, anti-histag-FITC. The protocol: First, CD16a+NK92 was harvested and washed once using Dulbecco's phosphate-buffered saline (DPBS) supplemented with 2% FBS (2% DPBS-FBS). Next, all the cells were fixed using 3.7% paraformaldehyde for 20 min at RT, followed by washing twice. […] Following washing three times, the secondary antibody, anti-Histag antibody FITC labeled, was added. After washing, the samples were run on Cytoflex using FL1 channel.

The target of experiment [9] is T3, Biotinylated Human Fc gamma RIIIA/CD16a (F176) Protein, Avitag, His Tag (Acrobiosystems CDA-H82E8) (human, UniProt P08637 17-208, biotinylated (Avitag)).
T3 construct: also called biotinylated CD16a; CD16a antigen
T3 sequence (P08637 17-208 limits assumed): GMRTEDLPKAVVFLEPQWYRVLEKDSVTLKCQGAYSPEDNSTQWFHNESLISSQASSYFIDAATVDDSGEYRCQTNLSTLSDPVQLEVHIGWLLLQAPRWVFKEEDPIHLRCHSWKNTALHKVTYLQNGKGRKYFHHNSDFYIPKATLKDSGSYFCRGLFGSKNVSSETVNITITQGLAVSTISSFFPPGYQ
Nature of the experiment: ELISA, biotinylated CD16a on streptavidin plate, tenfold dilutions 0-1000 nM, anti-cMyc-HRP. As for the experimental part: For ELISA, 50 μL of biotinylated CD16a was added to the streptavidin-coated plate and incubated for 45 min at RT. […] Next, 100 μl anti-cMyc tag HRP conjugated secondary antibody (1:10,000 dilutions) was added. Finally, after washing, the substrate was added for color development, and the plate was read using OD of 450 nm.
(An ELISA detects its analyte on a solid surface through an enzyme-linked reagent.)

The target in experiment [10] is T3, Biotinylated Human Fc gamma RIIIA/CD16a …. Nature of the experiment: BLI (Octet), biotinylated CD16a on streptavidin sensor, VHH 1.875-60 nM. A general note: BLI is a label-free optical method that tracks binding on a fibre tip over time.
The target in a further experiment is T4, CD32b on B cells (UniProt P31994 43-310).
T4 construct: whole, on cells; also called B cells (CD32b+)
T4 sequence (looked up): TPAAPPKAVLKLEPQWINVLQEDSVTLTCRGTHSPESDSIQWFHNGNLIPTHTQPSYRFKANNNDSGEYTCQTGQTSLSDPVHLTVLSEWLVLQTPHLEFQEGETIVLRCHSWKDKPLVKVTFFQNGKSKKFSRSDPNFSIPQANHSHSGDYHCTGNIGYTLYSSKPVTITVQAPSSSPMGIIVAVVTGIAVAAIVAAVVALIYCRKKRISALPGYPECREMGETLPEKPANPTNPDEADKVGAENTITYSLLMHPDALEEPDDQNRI
The experiment is described as follows: flow cytometry on B cells (CD32b+).

For experiment [11], the target named is T1, CD16b on neutrophils. Nature of the experiment: flow cytometry on neutrophils (CD16b+). The protocol: For flow cytometry, haNK92 cells (CD16a+) and Neutrophils (CD16b⁺) were used. […] The human Neutrophil cells were purchased from HemaCare and cultured according to the manufacturer's protocol. First, both cell lines were harvested and washed once using DPBS supplemented with 2% FBS (2% DPBS-FBS). For each sample, 0.5×10⁶ cells were stained with antibody on ice for 60 min. In this experiment, 3G8 monoclonal antibody was used as a positive control. This antibody binds to both CD16a and CD16b. Following washing three times, the secondary antibody, anti-Histag antibody FITC labeled, was added. After washing, the samples were run on Cytoflex using FL2 channel.
In this experiment, NK92 cells (CD16a⁺), neutrophils (CD16b⁺), and B cells (CD32b⁺) were used as cell controls. 3G8 (anti-CD16a/b) and AT10 (anti-CD32a/b) mAbs were used as antibody controls.

For a further experiment, the target named is T5, biotinylated CD32b (UniProt P31994 46-217, biotinylated).
T5 construct: also called CD32b antigen
T5 sequence (looked up): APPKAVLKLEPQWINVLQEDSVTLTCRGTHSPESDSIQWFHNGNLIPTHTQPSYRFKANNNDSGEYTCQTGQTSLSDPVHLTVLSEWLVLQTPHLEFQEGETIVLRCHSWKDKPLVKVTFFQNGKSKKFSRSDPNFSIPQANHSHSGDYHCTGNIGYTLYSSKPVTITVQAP
Nature of the experiment: ELISA, biotinylated antigen on streptavidin plate. The protocol:
The purified VHHs were subjected to functional analysis using ELISA and flow cytometry. For ELISA, 50 μL of biotinylated CD16a, CD16b-NA1, CD16b-NA2, and CD32b were added to the streptavidin-coated plate and incubated for 45 min at RT. Following washing, the 100 μL of 100 nM purified VHHs were added and incubated at RT for 1 h. Next, 100 μL anti-HA tag HRP conjugated secondary antibody was added. Finally, the substrate was added for color development, and the plate was read using OD of 450 nm.
CD32b and skim milk were also used as antigen controls. 3G8 and eBioCB16, which are anti-CD16a/b mAbs were used as antibody controls. […] CD32b is a receptor that is expressed on B cells and responsible for inhibiting B cell activation. One of the disadvantages of mAb-based therapies is the binding of their Fc region to CD32b leading to the diminished activity of humoral immunity.

The target in experiment [12] is T6, Biotinylated Human Fc gamma RIIIB/CD16b (NA1) Protein, His, Avitag (Acrobiosystems CDB-H82E4) (human, UniProt O75015 17-200, biotinylated (Avitag)).
T6 construct: NA1 allele; also called CD16b-NAI
T6 sequence (O75015 other isoform, or with tags, fused parts or gaps limits assumed): as the sequence (O75015 17-200) above, with S20R, N66D, I90V counted along it
The experiment is described as follows: BLI (Octet), biotinylated CD16b-NA1 on streptavidin sensor, VHH 1.875-60 nM. The protocol:
An Octet® Streptavidin (SA) Biosensor was soaked for at least 10 min in DPBS supplemented with 0.1% Casein, biotinylated CD16a, CD16b-NA1, CD16b-NA2, and HER2 antigens were loaded onto the streptavidin (SA) biosensor until 1 nm shift was reached. Next, the sensor was dipped into the washing buffer (DPBS+0.05% Tween 20+0.1% Casein) for 2 min to reach the baseline. […] Then, in the dissociation step, sensors were dipped into the washing buffer for 5 min to acquire data (Table 5). The data were then analyzed using Octet Data Analysis HT 11.1 software. The sensorgrams were subtracted from the reference and fitted into 1:1 binding model for data analysis. Finally, the affinity and kinetics were analyzed using “Association and Dissociation”.

T2 sequence (P08637 17-254 F176V): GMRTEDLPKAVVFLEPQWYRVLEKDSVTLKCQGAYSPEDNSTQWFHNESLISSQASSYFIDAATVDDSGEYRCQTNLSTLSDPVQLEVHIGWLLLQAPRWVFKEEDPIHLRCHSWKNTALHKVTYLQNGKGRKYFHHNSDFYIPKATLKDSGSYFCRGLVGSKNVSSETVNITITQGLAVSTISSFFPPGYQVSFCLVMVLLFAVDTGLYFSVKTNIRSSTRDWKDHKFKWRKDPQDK

As to “CD16 Monoclonal Antibody (3G8), Functional Grade, eBioscience”, in the experiment with CD16b on neutrophils [1], the PE+ came to 61.9%. Also, in experiment [2], the FITC+ was 82.2%, the FITC- came to 17.8% and the MFI turned out to be 88200. In the experiment with CD16b on neutrophils [3], the MFI was 18000 and the PE- was 38.1%. Also, the PE+ with CD16b on neutrophils [4] is 61.1%.

Regarding Isotype (antibody), in [2], the FITC+ was 0.71%, the FITC- was determined as 99.3% and the MFI worked out at 25000. Further, in [5], the FITC+ (%) amounted to 0.97%, the FITC- (%) turned out to be 99% and the Mean (MFI) amounted to 915. In experiment [6], this molecule had an FITC+ (%) of 0.45%, an FITC- (%) of 99.6% and a Mean (MFI) of 935. In the experiment with CD16b on neutrophils [3], this molecule yielded an MFI of 867 and a PE+ of 4.42%. Further, in the experiment with CD16b on neutrophils [7], the PE- came out at 95.6%. Besides, the PE- in the experiment with CD16b on neutrophils [4] worked out at 90.6%.

B1: C1 anti-CD16a VHH (VHH)
VHH: QVQLQESGGGLVQAGGSLRLSCAASGRTFRLYRMGWFRQAPGKEREFVGSIKMIDGSTLYGDPVKGRFTISRDNTKFMAYLQMNSLKPEDTAVYYCASVSRVTGSYDSWGQGTQVTVSSYPYDVPDYAHHHHHHHH
notes: also called C1 clone; C1 VHH
Consider B1, for which the half-maximal effective concentration (EC50 (read off the curve)) is about 1 nM in experiment [8] and about 0.3 nM in [9]. Besides, the Kd in experiment [10] was determined as 1.73 nM; in experiment [12], 119 nM. Further, the koff in [10] amounted to 0.000479 s⁻¹; in [12], 0.0255 s⁻¹. In addition, the results for the kon in experiment [10] and in experiment [12] were 277000 M⁻¹ s⁻¹ and 213000 M⁻¹ s⁻¹, respectively. The values for the binding result with CD32b on B cells, with CD16b on neutrophils [11] and with biotinylated CD32b were “no binding”, “no binding” and “no binding (tested: 100 nM)”, respectively.
